These results are taken from the supplement of paper PMC11780869.

The test system of this data set is Bacillus subtilis. Nature of the data set: cleaved RNA product abundance (RNA/gDNA barcode ratio) relative to median wild-type variant (ratio to wild type); higher = more accumulation of the downstream cleavage product. The settings on record: cleavage site: cggR-gapA (positions -7 to +36 mutated). The method, then: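 MPRA in B. subtilis. Mutagenized RNase Y cleavage-site regions (9% mutation rate) were inserted into a barcoded reporter mRNA (truncated aprE or tetM). Cells were grown in LB at 37°C to OD600 0.3. The cleaved RNA isoform was gel-purified and its barcodes counted; the RNA:gDNA barcode ratio was normalised to the median wild-type variant, and the median over barcodes is reported per variant. The printed sequence is the variable window only; the reporter flanks are not printed.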

Setting [1] is: experiment (reporter, strain, medium): exp 4a: truncated aprE reporter, strain BJT201 with 2% xylose (RNase J1 expressed).
Setting [2] is: experiment (reporter, strain, medium): exp 2b: truncated aprE reporter, strain BJT200.

On to “ACAGACGAAGGAGCCGCAAAGAAGGTATTAAGGGATGAATAATCCATCAATATAAATATCTCTCACTTATTTAAA”, for which the “cleaved RNA product abundance” value under setting [1] was 0.13.

For “ACAGACGAAGGAGCCGCAAAGAAGGTATTAAGGGATGAATAATCCCACAATATAAATATCTCTCACTTATTTAAA”, the “cleaved RNA product abundance” value under setting [2] turned out to be 0.314. For the sequence “ACAGACGAAGGAGCCGCAAAGAAGGTATTAAGGGATGAATAATCCCCCAATATAAATATCTCTCACTTATTTAAA”, under setting [1], the “cleaved RNA product abundance” value stood at 0.378.

Turning to “ACAGACGAAGGAGCCGCAAAGAAGGTATTAAGGGATGAATAATCCCTAAATATAAATATCTCTCACTTATTTAAA”, the “cleaved RNA product abundance” value reads like this: under setting [2], 0.994; under setting [1], 0.966.

On to “ACAGACGAAGGAGCCGCAAAGAAGGTATTAAGGGATGAATAATCCCTCAATATAAATATCTCTCACTTATTTAAA”, for which the “cleaved RNA product abundance” value reads like this: under setting [2], 1.51; under setting [1], 1.18; (experiment (reporter, strain, medium): exp 6: tetM reporter, strain 168) 0.983.

Regarding “ACAGACGAAGGAGCCGCAAAGAAGGTATTAAGGGATGAATAATCCCTCAATATAAATTTCTCTCACTTATTTAAA”, the “cleaved RNA product abundance” value under setting [1] was determined as 0.849. The same measure, in the same setting: for “ACAGACGAAGGAGCCGCAAAGAAGGTATTAAGGGATGAATAATCCCTCAATATAACTATCTCTCACTTATTTAAA” the value was 0.73. As to “ACAGACGAAGGAGCCGCAAAGAAGGTATTAAGGGATGAATAATCCCTGAATATAAATATCTCTCACTTATTTAAA”, the “cleaved RNA product abundance” value under setting [1] came to 1.45.

Regarding “ACAGACGAAGGAGCCGCAAAGAAGGTATTAAGGGATGAATAATCCCTTAATATAAATATCTCTCACTTATTTAAA”, the “cleaved RNA product abundance” value under setting [1] came to 0.326.

For “ACAGACGAAGGAGCCGCAAAGAAGGTATTAAGGGATGAATAATCGCTCAATATAAATATCTCTCACTTATTTAAA”, under setting [2], the “cleaved RNA product abundance” value was 0.176. On to “ACAGACGAAGGAGCCGCAAAGAAGGTATTAAGGTATGAATAATCCCTCAATATAAATATCTCTCACTTATTTAAA”, for which, under setting [1], the “cleaved RNA product abundance” value is 0.23. Still for that read-out and setting: under “ACAGACGAAGGAGCCGCAAAGAAGGTATTAAGTGATGAATAATCCCTCAATATAAATATCTCTCACTTATTTAAA” stands 0.104. The same measure, in the same setting: for “ACAGACGAAGGAGCCGCAAAGAAGGTCTTAAGGGATGAATAATCCCTCAATATAAATATCTCTCACTTATTTAAA” the value was 0.115; for “ACAGACGAAGGAGCCGCAAAGAAGTAAATAAGGAATGAATAATCCCTCAATATAAATATCTCTCACTTATTTAAA”, 0.0667. “ACAGACGAAGGAGCCGCAAAGAAGTAAATAAGGGATGAATAATCCCTCAATATAAATATCTCTCACTTATTTAAA”: the “cleaved RNA product abundance” value by setting is: under setting [2], 0.151; under setting [1], 0.258.

Turning to “ACAGACGAAGGAGCCGCAAAGAAGTAAGTAAGGGATGAATAATCCCTCAATATAAATATCTCTCACTTATTTAAA”, the “cleaved RNA product abundance” value is, setting by setting: under setting [2], 0.212; under setting [1], 0.378.

Consider “ACAGACGAAGGAGCCGCAAAGAAGTAATAAAGGGATGAATAATCCCTCAATATAAATATCTCTCACTTATTTAAA”, for which the “cleaved RNA product abundance” value under setting [1] amounted to 0.205. For the sequence “ACAGACGAAGGAGCCGCAAAGAAGTAATTAAAGGATGAATAATCCCTCAATATAAATATCTCTCACTTATTTAAA”, the “cleaved RNA product abundance” value under setting [2] was 0.101 and the “cleaved RNA product abundance” value under setting [1] was 0.105. On to “ACAGACGAAGGAGCCGCAAAGAAGTAATTAAAGGATTAATAATCCCTCAATATAAATATCTCTCACTTATTTAAA”, for which the “cleaved RNA product abundance” value under setting [1] worked out at 0.183.

“ACAGACGAAGGAGCCGCAAAGAAGTAATTAACGGATGAATAATCCCTCAATATAAATATCTCTCACTTATTTAAA”: the “cleaved RNA product abundance” value under setting [1] was 0.133. Take “ACAGACGAAGGAGCCGCAAAGAAGTAATTAACGGATGAATAATCCCTGAATATAAATATCTCTCACTTATTTAAA”: the “cleaved RNA product abundance” value under setting [1] was 0.16. In the case of “ACAGACGAAGGAGCCGCAAAGAAGTAATTAAGAGATAAATAATCCCTCAATATAAATATCTCTCACTTATTTAAA”, the “cleaved RNA product abundance” value under setting [1] came to 0.123. As to “ACAGACGAAGGAGCCGCAAAGAAGTAATTAAGAGATGAATAATCCCTCAATATAAATATCTCTCACTTATTTAAA”, the “cleaved RNA product abundance” value amounted to 0.0957 under setting [2] and 0.141 under setting [1].

Consider “ACAGACGAAGGAGCCGCAAAGAAGTAATTAAGCGATGAATAATCCCTCAATATAAATATCTCTCACTTATTTAAA”, for which the “cleaved RNA product abundance” value under setting [1] was determined as 0.157. On to “ACAGACGAAGGAGCCGCAAAGAAGTAATTAAGGAATGAATAATCCCTCAATATAAATATCTCTCACTTATTTAAA”, for which the “cleaved RNA product abundance” value is 0.0931 under setting [2] and 0.0879 under setting [1].

In the case of “ACAGACGAAGGAGCCGCAAAGAAGTAATTAAGGCATGAATAATCCCTCAATATAAATATCTCTCACTTATTTAAA”, the “cleaved RNA product abundance” value under setting [1] is 0.0969.

Take “ACAGACGAAGGAGCCGCAAAGAAGTAATTAAGGGAAGAATAATCCCTCAATATAAATATCTCTCACTTATTTAAA”: the “cleaved RNA product abundance” value runs as follows: under setting [2], 0.117; under setting [1], 0.263. Turning to “ACAGACGAAGGAGCCGCAAAGAAGTAATTAAGGGACGAATAATCCCTCAATATAAATATCTCTCACTTATTTAAA”, the “cleaved RNA product abundance” value is, setting by setting: under setting [2], 0.139; under setting [1], 0.175. For the sequence “ACAGACGAAGGAGCCGCAAAGAAGTAATTAAGGGATAAATAATCCCTCAATATAAATATCTCTCACTTATTTAAA”, the “cleaved RNA product abundance” value runs as follows: under setting [2], 0.256; under setting [1], 0.219. Consider “ACAGACGAAGGAGCCGCAAAGAAGTAATTAAGGGATCAATAATCCCTCAATATAAATATCTCTCACTTATTTAAA”, for which the “cleaved RNA product abundance” value by setting is: under setting [2], 0.181; under setting [1], 0.305. For “ACAGACGAAGGAGCCGCAAAGAAGTAATTAAGGGATGAAAAATCCCTCAATATAAATATCTCTCACTTATTTAAA” the same measures were 0.163 and 0.272.

Consider “ACAGACGAAGGAGCCGCAAAGAAGTAATTAAGGGATGAACAATCCCTCAATATAAATATCTCTCACTTATTTAAA”, for which the “cleaved RNA product abundance” value under setting [2] was determined as 0.181. For the sequence “ACAGACGAAGGAGCCGCAAAGAAGTAATTAAGGGATGAATAAACCCTCAATATAAATATCTCTCACTTATTTAAA”, the “cleaved RNA product abundance” value is, setting by setting: under setting [2], 0.166; under setting [1], 0.198. In the case of “ACAGACGAAGGAGCCGCAAAGAAGTAATTAAGGGATGAATAAACCCTCATTATAAATATCTCTCACTTATTTAAA”, under setting [1], the “cleaved RNA product abundance” value came out at 0.148. As to “ACAGACGAAGGAGCCGCAAAGAAGTAATTAAGGGATGAATAACCCCTCAATATAAATATCTCTCACTTATTTAAA”, the “cleaved RNA product abundance” value under setting [1] was found to be 0.158. For the sequence “ACAGACGAAGGAGCCGCAAAGAAGTAATTAAGGGATGAATAAGCCCTCAATATAAATATCTCTCACTTATTTAAA”, the “cleaved RNA product abundance” value under setting [1] turned out to be 0.149. “ACAGACGAAGGAGCCGCAAAGAAGTAATTAAGGGATGAATAATACCTCAATATAAATATCTCTCACTTATTTAAA”: the “cleaved RNA product abundance” value was determined as 0.115 under setting [2] and 0.141 under setting [1]. On to “ACAGACGAAGGAGCCGCAAAGAAGTAATTAAGGGATGAATAATCACTCAATATAAATATCTCTCACTTATTTAAA”, for which, under setting [1], the “cleaved RNA product abundance” value amounted to 0.109. For “ACAGACGAAGGAGCCGCAAAGAAGTAATTAAGGGATGAATAATCCATCAATATAAATATCTCTCACTTATTTAAA”, the “cleaved RNA product abundance” value reads like this: under setting [2], 0.148; under setting [1], 0.183. With “ACAGACGAAGGAGCCGCAAAGAAGTAATTAAGGGATGAATAATCCCTAAATATAAATATCTCTCACTTATTTAAA”, under setting [1], the “cleaved RNA product abundance” value was 0.234. On to “ACAGACGAAGGAGCCGCAAAGAAGTAATTAAGGGATGAATAATCCCTCAAAATAAATATCTCTCACTTATTTAAA”, for which the “cleaved RNA product abundance” value is, setting by setting: under setting [2], 0.16; under setting [1], 0.215.
